Experimental data as given in article PMC6954417, “DSS1 interacts with and stimulates RAD52 to promote the repair of DSBs” (Nucleic Acids Research, 2019).

Molecular target: T1, GST-DSS1 (human, UniProt P60896 1-70)
T1 construct: DSS1, human; expressed from pGEX-KG; NMR numbering runs from M1 to three residues after M67; also called recombinant GST-DSS1 protein; source: E. coli BL21 (DE3), purified (Glutathione 4B-Sepharose, MonoQ); not shown: GST, N-terminal, kept
Experiment: pull-down; quantitative: GST-DSS1 4 uM on GST beads, increasing His6-RAD52, 20 mM Tris-acetate pH 7.5, 100 mM KCl, 0.01% NP40, 1 mM DTT, 1 h, 4°C; band intensities normalised to 6 uM His6-RAD52
Conditions: both partners purified

T1 sequence (P60896 whole entry): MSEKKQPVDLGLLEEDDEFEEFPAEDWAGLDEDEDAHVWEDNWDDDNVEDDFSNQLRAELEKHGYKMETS

B1: His6-RAD52 (natural protein, human, UniProt P43351 1-418, looked up)
chain: MSGTEEAILGGRDSHPAAGGGSVLCFGQCQYTAEEYQAIQKALRQRLGPEYISSRMAGGGQKVCYIEGHRVINLANEMFGYNGWAHSITQQNVDFVDLNNGKFYVGVCAFVRVQLKDGSYHEDVGYGVSEGLKSKALSLEKARKEAVTDGLKRALRSFGNALGNCILDKDYLRSLNKLPRQLPLEVDLTKAKRQDLEPSVEEARYNSCRPNMALGHPQLQQVTSPSRPSHAVIPADQDCSSRSLSSSAVESEATHQRKLRQKQLQQQFRERMEKQQVRVSTPSAEKSEAAPPAPPVTHSTPVTVSEPLLEKDFLAGVTQELIKTLEDNSEKWAVTPDAGDGVVKPSSRADPAQTSDTLALNNQMVTQNRTPHSVCHQKPQAKSGSWDLQTYSADQRTTGNWESHRKSQDMKKRKYDPS
notes: RAD52, human, with His6 tag; not shown: His6, N-terminal, kept
stoichiometry N: 1
